Results from paper PMC3420232, “The Transmembrane Domains of TNF-Related Apoptosis-Inducing Ligand (TRAIL) Receptors 1 and 2 Co-Regulate Apoptotic Signaling Capacity” (PLoS ONE, 2012).

Molecular target: T1, wild-type human TRAILR2 (human, UniProt O14763 56-440)
T1 construct: TRAIL receptor 2 (TRAILR2, DR5), human, wild type; the printed numbers (transmembrane region ending at 231, GIIIG at 212-216, stalk of about 34 aa) fit the long form; also called DR5; TRICK2; source: immortalized mouse fibroblasts (MF), stably transfected, on cells
Assay: radioligand binding; competition on cells: 4x10^5 murine fibroblasts expressing the (chimeric) TRAIL receptor in PFA (PBS, 2% FCS, 0.002% sodium azide), 83 ng/ml 125I-TRAIL with or without unlabeled recombinant human TRAIL (83-5300 ng/ml), 4 hours on ice; cells spun through phthalate oil; 68 kDa used for TRAIL
Conditions: one partner purified

B1: Flag-tagged recombinant human TRAIL (sTRAIL), unlabeled (ligand, UniProt P50591 95-281, looked up)
chain: TSEETISTVQEKQQNISPLVRERGPQRVAAHITGTRGRSNTLSSPNSKNEKALGRKINSWESSRSGHSFLSNLHLRNGELVIHEKGFYYIYSQTYFRFQEEIKENTKNDKQMVQYIYKYTSYPDPILLMKSARNSCWSKDAEYGLYSIYQGGIFELKENDRIFVSVTNEHLIDMDHEASFFGAFLVG
notes: TRAIL (TNF-related apoptosis-inducing ligand), human, soluble recombinant form (sTRAIL); no removal of the tag is told; also called FLAG-TRAIL; non-labeled TRAIL; source: bought: Axxora (Lörrach, Germany)
Q: With B1 as the binder, how does the IC50 read?
A: Its IC50 is 3.5 nM.
